Results published in patent publication US9278137B2, “Polymeric conjugates of active principles, their process of preparation and their polymeric intermediates” (SANOFI, priority 2010, dated 2016).
Like-named read-outs stand apart in the source and are kept apart here.

How the values were obtained:
[1] = for In vitro data in rat plasma (release of free cabazitaxel): 37° C., formulation 1 mg/mL; for release profile (in words): comparison of linkers
[2] = Nanoparticle size (hydrodynamic diameter) by dynamic light scattering (DLS); details: nanodispersion 10 mg/mL in WFI

Row | Substance | In vitro data in rat plasma (release of free cabazitaxel) ([1]; Time 0 h) | In vitro data in rat plasma (release of free cabazitaxel) ([1]; Time 1 h) | In vitro data in rat plasma (release of free cabazitaxel) ([1]; Time 2 h) | In vitro data in rat plasma (release of free cabazitaxel) ([1]; Time 4 h) | In vitro data in rat plasma (release of free cabazitaxel) ([1]; Time 18 h) | In vitro data in rat plasma (release of free cabazitaxel) ([1]; Time 24 h) | free cabazitaxel released in 24 h ([1]; rat plasma) | release profile (in words) ([1]; rat plasma) | release of succinyl-cabazitaxel from the formulation ([1]; rat plasma, quantified using HPLC) | Mean diameter (using DLS) [2] | PDI (DLS) [2]
1 | mPEG2000-PLA10000-Y-succinyl-2′-cabazitaxel [VIII′] | 0 | 0.84 | 1.68 | 3.30 | 17.35 | 20.16 | ~17% | slowest release profile | < 1 % of cabazitaxel present initially in the nanoparticles |  | 
2 | mPEG-PLA-diglycolyl-cabazitaxel [XI] | 2.20 | 5.36 | 8.67 | 14.81 | 49.39 | 55.09 | ~47% | relatively rapid release |  | 52 nm | 0.18
3 | mPEG-PLA-glutaryl-cabazitaxel | 0 | 1.31 | 2.30 | 5.29 | 23.51 | 31.72 | ~27% |  |  | 60 nm | 0.21
4 | mPEG-PLA-succinyl-larotaxel [IX] |  |  |  |  |  |  |  |  |  | 48 nm | 0.17
